Measurements published in US20220168345A1 (published 2022).

Molecular target: T1, NY-ESO-1 peptide on HLA-B*07:02 (human)
T1 peptide: APRGPHGGAASGL
Assay: multimer staining
Excerpt: FIGS. 3A-3I are graphical representations of positive staining of Jurkat 76/CD8 cells transduced with B*07:02/NY-ESO-1₆₀₋₇₂ TCR genes with a cognate multimer. Jurkat 76/CD8 cells transduced with the B*07:02/NY-ESO-1₆₀₋₇₂ TCR (FIGS. 3B, 3E, and 3H) were stained with the B*07:02/NY-ESO-1₆₀₋₇₂ multimer (FIG. 3B). The B*07:02/MAGE-A1₂₈₉₋₂₉₇ multimer (FIGS. 3D, 3E, and 3F), B*07:02/unexchanged multimer (FIGS. 3G, 3H, and 3I), and B*07:02/MAGE-A1₂₈₉₋₂₉₇ TCR (FIGS. 3C, 3F, and 3I) were employed as controls, as well as Jurkat 76/CD8 not transduced with a TCR (FIGS. 3A, 3D, and 3G). The percentage of multimer⁺ CD8⁺ cells is shown.
T cells (1×10⁵) were incubated for 30 minutes at 37° C. in the presence of 50 nM dasatinib (LC laboratories). The cells were then washed and incubated with 5-10 μg/ml of multimer for 30 minutes at room temperature, and R-phycoerythrin-conjugated AffiniPure Fab fragment goat anti-mouse IgG1 (Jackson ImmunoResearch Laboratories) was added for 15 minutes at 4° C. Next, the cells were washed three times and costained with an anti-CD8 mAb for 15 minutes at 4° C. Dead cells were finally discriminated using the LIVE/DEAD Fixable Dead Cell Stain kit.

- binding result: recognises
B1: B*07:02/NY-ESO-1 60-72 TCR (TCR, V domains shown)
Valpha: AQSVTQLDSHVSVSEGTPVLLRCNYSSSYSPSLFWYVQHPNKGLQLLLKYTSAATLVKGINGFEAEFKKSETSFHLTKPSAHMSDAAEYFCVVSFSGNTPLVFGKGTRLSVIA
Vbeta: DTGVSQDPRHKITKRGQNVTFRCDPISEHNRLYWYRQTLGQGPEFLTYFQNEAQLEKSRLLSDRFSAERPKGSFSTLEIQRTEQGDSAMYLCASSSSYSNQPQHFGDGTRLSIL
